Experimental data as given in patent US20220125947A1 (published 2022).
Positions count from the first letter of the chain named.

B1: VG9B198 (antibody, human IgG1, lambda, V domains shown)
VH: QVQLQESGPGLVKPSETLSLTCTVSGDSISSIYWSWIRQSAGKGLEWIGRIYTTDITNYNPSLKSRVTMSADTSKNQLSLKLTSVTAADTAVYYCAKNGYSYGGFNYWGQGTLVTVSS
VL: QSVLTQPPSVSGAPGQRVTISCTGSSSNIGAGYDVHWYQRLPGTAPKLLIYGDSYRPSGVPDRFSGSKSGTSASLAITGLQAEDEADYYCQSYDSSLSVVVFGGGTKLTVLG
notes: IgG1, lambda
B2: VG9B140 (antibody, human IgG1, kappa, V domains shown)
VH: EVQLVESGGGLVKPGGSLRLSCAGSGFTFRSYDMNWVRQAPGKGLEWVSSISTSSGYIYYADSVKGRFTISRDNAKNSLSLQMNSLRAEDTAVFYCARDRGIAVAGDYYYGMDVWGQGTMVTVSS
VL: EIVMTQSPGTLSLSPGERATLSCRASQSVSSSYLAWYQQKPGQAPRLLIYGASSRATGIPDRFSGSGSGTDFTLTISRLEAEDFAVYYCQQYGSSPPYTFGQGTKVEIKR
notes: IgG1, kappa
B3: VG9B195 (antibody, human IgG1, lambda, V domains shown)
VH: EVQLVESGGGLVKPGGSLRLSCAASGFTFSPYTMNWVRQAPGKGLEWVSSISSSSSYMYYADSVKGRFTISRDNAKNSLYLQMNSLRAEDTAVYYCARDGDLVGPTYYFDYWGQGTLVTVSS
VL: SYELMQPPSVSVSPGQTASITCSGDKLGDKYACWYQQKPGQSPVLVIYQHNKRPSGIPERFSGSNSGKTATLTISGTQAMDEADYYCQAWDSTTVVFGGGTKLTVLG
notes: IgG1, lambda
B4: VG9B416 (antibody, human IgG1, kappa)
heavy: not shown
light: EIVLTQSPGTLSLSPGDRATLSCRASQSVASSYLAWYQQKPGQSPRLLIYGASSRATGIPDRFSGSGSGTDFTLTISRLEPEDFAVYYCQQYGSSPPYTFGQGTKLEIKRTVAAPSVFIFPPSDEQLKSGTASVVCLLNNFYPREAKVQWKVDNALQSGNSQESVTEQDSKDSTYSLSSTLTLSKADYEKHKVYACEVTHQGLSSPVTKSFNRGEC
notes: IgG1, kappa
B5: VG9B429 (antibody, human IgG1, kappa)
heavy: not shown
light: DIQMTQSPSSVSASVGDRVTITCRASQGINSWLAWYQQKPGNAPKLLIYAASSLQSGVPSRFSGIGSGTDFIFTISSLQPEDFASYYCQQANSFPWTFGQGTRLEIKRTVAAPSVFIFPPSDEQLKSGTASVVCLLNNFYPREAKVQWKVDNALQSGNSQESVTEQDSKDSTYSLSSTLTLSKADYEKHKVYACEVTHQGLSSPVTKSFNRGEC
notes: IgG1, kappa
B6: VG9B414 (antibody, human IgG1, kappa)
heavy: not shown
light: B5 light with D1E, Q3V
notes: IgG1, kappa
B7: VG9B69 (antibody, human IgG1, kappa, V domains shown)
VH: EVQLVESGGGLVKPGGSLRLSCAASGFTFSSYDINWVRQAPGKGLEWVSSITSSSYYIYYADSVKGRFTISRDNAKNSLYLQMNSLRAEDTAVYYCARDLGVRGVDYYYYGLDVWGQGTMVTVSS
VL: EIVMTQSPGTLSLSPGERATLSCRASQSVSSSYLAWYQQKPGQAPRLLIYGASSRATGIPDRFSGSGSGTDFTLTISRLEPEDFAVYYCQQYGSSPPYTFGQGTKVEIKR
notes: IgG1, kappa
B8: VG9B46 (antibody, human IgG1, kappa, V domains shown)
VH: EVQLVESGGGLVKPGGSLRLSCEASGFTFSINSMNWVRQAPGKGLEWVSSISSTSDYIFNADSVKGRFTISRDNAKNSLYLQMNSLRAEDTAVYYCVRDDVFGAFDIWGQGTMVTVSS
VL: EIVLTQSPGTLSLSPGERATLSCRTSQSVSRSYLGWYQQKPGQPPRLLIFGSSSRATGIPDRFSGSGSGTDFTLTISRLEPEDFAVYYCQQYSRSPLTFGGGTKVDIKR
notes: IgG1, kappa
B9: VG9B463 (antibody, human IgG1, lambda, V domains shown)
VH: EVQLVESGGGLVKPGGSLRLSCSASGFTFSNYDMNWVRQAPGKGLEWVSSISSSSSYIYYADSVKGRFTISRDNAKNSLYLQMNSLRAEDTAVYHCARDVGVTTDYYYYGMDVWGQGTTVTVSS
VL: QPVLTQSSSASGTPGQRVTISCSGSSSNIGSNTVNWYQQFPGTAPKLLIYTNTQRPSGVPDRFSGSKSGTLVSLAISGLQSEDEADYYCAAWDDSLNAWVFGGGTKLTVLG
notes: IgG1, lambda
B10: VG9B469 (antibody, human IgG1, kappa, V domains shown)
VH: EVQLVESGGGLVKPGGSLRLSCAASGFTFSHYDMNWVRQAPGKGLEWVSSISSSSSYIFYADSVKGRFTISRDNAKNSLLLQMNSLRAEDTAVYHCARDRGVGDTSDYYSFGLDVWGQGTMVTVSS
VL: DIVMTQSPGTLSLSPGERATLSCRASQNVSSTYLAWYQQKPGQAPRLLIYGACSRATGIPDRFSGSGSGTDFTLTISRLEPEDYAVYYCQQYGSSPPYTFGRGTKLEIKR
notes: IgG1, kappa
B11: VG9B80 (antibody, human IgG1, kappa, V domains shown)
VH: EVQLVQSGGGLVKSGGSLRLSCAASGFTFSTYSMNWVRQAPGKGLEWVSSISSSSSYIFYADSVKGRIIISRDNAKNSLYLQMNSVRADDTAVYYCAKDGELGVFDYWGQGTLVTVSS
VL: EIVLTQSPGTLSLSAGERATLSCRASQSISSSYLAWYQQKPGQAPRVLIYGPSGRATGIPDRFRGSGSGTDFTLTISRLEPEDFAVYYCQQFGRSPLTFGGGTKVEIKR
notes: IgG1, kappa
B12: VG9B104 (antibody, human IgG1, kappa, V domains shown)
VH: EVQLVESGGGLVKPGGSLRLSCAASGFTFSVYSMNWVRQAPGKGLEWVSSIGSSSSYIFYADSVKGRFTISRDNAKNSLYLQMNSLRAEDTAVYYCGRDHDYGGLDYWGQGTLVTVSS
VL: B11 VL with A15P, I29V, V47L, G54N, G58D, R64S, S66T, F92Y
notes: IgG1, kappa
B13: VG9B54 (antibody, human IgG1, kappa, V domains shown)
VH: EVQLVESGGGLVKPGGSLRLSCAASGFAFSSYSLTWVRQAPGKGLEWVSSISSSSSYIFYADSVKGRFTISRDNAKNSLYLQMNSLRAEDTAVYYCATDGELGPFDYWGQGTTVTVSS
VL: B11 VL with L4M, A15P, I29V, Y37F, V47R, P52A, G54S, R64S, F92Y
notes: IgG1, kappa
B14: VG9B121 (antibody, human IgG1, kappa, V domains shown)
VH: EVQLVESGGGLVKPGGSLRLSCVASGFTFSDYAMDWVRQAPGKGLDWISSISSTSNYIFYADSVKGRFTISRDNAKNSLYLQMNSLRVEDSAVYYCANSYNWNYGGAFDIWGQGTMVTVSS
VL: DIQMTQSPGTLSSSPGERATLSCRASQSVSSSYFAWYQQKPGRAPRLLIYGASSRATGIPDRFSGSGSGTDFTLTISRLEPEDFAVYFCQQYGRSPLTFGGGTKVEIKR
notes: IgG1, kappa
B15: VG9B98 (antibody, human IgG1, kappa, V domains shown)
VH: EVQLVQSGGDLVKSGGSLRLSCAASGFTFSSYSMYWVRQAPGKGLEWVSSIGSSSTYIFYADSVKGRFTISRDNAMTSLYLQMNRLGAEDSAVYYCARDGELGPFEYWGQGTLVTVSS
VL: B8 VL with T25A, R31T, G35A, Y37F, P44A, S52T, Y88H, Q90L, S93G
notes: IgG1, kappa; also called antibody #21
B16: VG9B133 (antibody, human IgG1, kappa, V domains shown)
VH: EVQLVESGGGLVKPGGSLRLSCAAAGFTFSNYDMNWVRQVPGKGLEWVSSISSSSSYIYYADSVKGRFTISRDNAKNSLYLQMNTLRAEDTAVYYCARDLGITGTTMDYYYGMDVWGQGTMVTVSS
VL: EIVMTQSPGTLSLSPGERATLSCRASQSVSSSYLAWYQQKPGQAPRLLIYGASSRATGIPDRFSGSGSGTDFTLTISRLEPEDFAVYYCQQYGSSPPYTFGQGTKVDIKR
notes: IgG1, kappa; also called antibody #23
B17: VG9B430 (antibody, human IgG1, kappa, V domains shown)
VH: B9 VH with V5L, N31S, T119M
VL: B10 VL with D1E, M4L, E17D, N28S, S30A, T32S, A44S, C53S, Y84F, R102Q
notes: IgG1, kappa; also called antibody #19
B18: VG9B73 (antibody, human IgG1, kappa, V domains shown)
VH: EVQLVQSGGGLVKPGGSLRLSCAASGFTFSNYDMNWVRQAPGKGLEWVSSISSSSSYIYYADSVKGRFTISRDNARNSLFLQMSSLRAEDTAVYYCAREIGVTGTTYYQDYGMDVWGQGTTVTVSS
VL: B10 VL with D1E, N28S, V29F, T32N, C53S, Y84F, V86L, Y98F, R102Q, L106V
notes: IgG1, kappa; also called antibody #22

Target: γδ T cell receptor on human γδ T cells (AG000003021) (human)
Test: flow cytometry, DRC binding at 37°C on human γδ T cells
Protocol: (§1) Binding of antibodies to human γδ T cells or SKW cell lines expressing Vγ9/Vδ2, Vγ9/Vδ2 or Vγ5/Vδ2 was carried out by flow cytometry. Briefly, the cells were centrifuged at 300×g for 5 minutes and the pellet was resuspended in 34 ml fresh media (in RPMI+10% FBS). 50 μL of the cells were then plated (44K cells/well) into assay plates. Samples were incubated for one hour at 37° C. in tissue culture (TC) incubator followed by wash steps by adding 100 μl FACS staining buffer. Secondary detention antibodies (A647 conjugated anti-human IgG Fc specific antibody (2 μg/mL) along with AF488 anti mouse CD3, clone OKT3 at 1 ug/mL) were added at 50 μL/well to appropriate wells according to the plate map. After incubating for 60 minutes at 37° C. in the TC incubator, cells were again washed as described above. This is followed by resuspension in 20 μL/well running buffer containing 1:1000 dilution of Sytox blue dead cell stain and the plates were run on iQue Screener.
(§2) Gating and data analysis: Human anti-human Vγ9 antibody (VG9B2 mAb at 10 nM) was used to mark the gating of positive population. All cells were first gated for singlets on SCS-A vs. SCS-H dot plot, live/dead followed by CD3 positive population, and this subset of CD3 positive population was gated for Vγ9 positive binding using positive control mAb. Cells were also assessed for cell binding of control mAbs by RL1 (A647) Geomeans from the live cell population. Advanced metrics were used and normalization metrics were chosen to calculate fold over background wells containing secondary antibody alone (designated as ‘background’ within ForeCyt settings).

Binder	Max. Activity
B1	3040 fold over background
B2	3230 fold over background
B3	3260 fold over background
B4	3120 fold over background
B5	3640 fold over background
B6	3300 fold over background
B7	3110 fold over background
B8	3210 fold over background
B9	3030 fold over background
B10	3000 fold over background
B11	3480 fold over background
B12	3050 fold over background
B13	4290 fold over background
B14	3670 fold over background

Target: T1, γδ T cell receptor on human γδ T cells (human)
T1 construct: also called AG000003021 (γδ T cells)
Test: flow cytometry, dose-response binding at 37 C on human γδ T cells
Protocol: as §1, §2

Binder	Max. Activity
B15	2880 fold over background
B16	2840 fold over background
B17	2970 fold over background
B18	2840 fold over background
